Reference: patent US20240261333A1 (published 2024)

Assays:
Assay in all cases: co-IP, anti-FLAG, N-FLAG B3GNT2 cell lysate, mass spectrometry
HSPB1 = target: T1, HSPB1 (UniProt P04792 1-205)
T1 construct: also called NP_001531.1
Experimental: (§1) Cells were plated in 10-cm cell culture dishes and grown to 60-80% confluency. For each condition, two biological replicates were harvested for co-IP. Cells were washed with PBS and 4 mL of lysis buffer (20 mM HEPES, 1% Triton X-100, 150 mM NaCl, 1 mM EDTA, and 10% glycerol) containing protease inhibitor cocktail was added. Cells were scraped and lysate was incubated at 4° C. under rotary agitation for 1 h. Lysate was centrifuged at 14,000×g for 10 min at 4° C. Supernatant was transferred to a new tube and an aliquot was taken as the input. […] For Western blots, 10 μg/mL Chicken Anti-FLAG (Aves labs ET-DY100) and IgY control (R&D Systems AB-101-C) antibodies were biotinylated (Thermo Fisher Scientific 90407) and added to the respective conditions. Lysates with antibodies were incubated at 4° C. under rotary agitation overnight. For each mL of lysate, 50 μL of Pierce Protein A/G Magnetic Beads (Mass spectrometry; Thermo Fisher Scientific 88803) or Pierce Streptavidin Magnetic Beads (Western blot; Thermo Fisher Scientific 88817) was washed twice with lysis buffer. Lysates with antibodies were added to the beads and incubated at 4° C. under rotary agitation for 4 h. Beads were washed with lysis buffer 3 times and resuspended in lysis buffer for storage.
(§2) Magnetic beads were resuspended in 100 mM Tris pH 7.8, reduced, alkylated and digested with trypsin at 37° ° C. overnight. This solution was subjected to solid phase extraction to concentrate the peptides and remove unwanted reagents followed by injection onto a Shimadzu HPLC with fraction collector. Eight fractions were collected and after concentration were injected on a Waters NanoAcquity HPLC equipped with a self-packed Aeris 3 μm C18 analytical column 0.075 mm by 20 cm, (Phenomenex). Peptides were eluted using standard reverse-phase gradients. The effluent from the column was analyzed using a Thermo Orbitrap Elite mass spectrometer (nanospray configuration) operated in a data dependent manner for 54 minutes. The resulting fragmentation spectra were correlated against the known database using Proteome Discover 1.4 (Thermo Fisher Scientific).

RPS16 = RPS16 (UniProt P62249 2-146)
Experimental: as §1, §2

RPS23 = RPS23 (UniProt P62266 2-143)
Experimental: as §1, §2

RPS8 = RPS8 (UniProt P62241 2-208)
Experimental: as §1, §2

TXN = target: T2, TXN (UniProt P10599 2-105)
T2 construct: also called NP_003320.2
T2 sequence (looked up): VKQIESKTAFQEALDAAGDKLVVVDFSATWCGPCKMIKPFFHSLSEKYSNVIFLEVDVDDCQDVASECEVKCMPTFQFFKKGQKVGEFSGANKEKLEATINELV
Experimental: as §1, §2

SSRP1 = target: T3, SSRP1 (UniProt Q08945 2-709)
T3 construct: also called NP_003137.1 (+3)
T3 sequence (Q08945 2-709 limits assumed): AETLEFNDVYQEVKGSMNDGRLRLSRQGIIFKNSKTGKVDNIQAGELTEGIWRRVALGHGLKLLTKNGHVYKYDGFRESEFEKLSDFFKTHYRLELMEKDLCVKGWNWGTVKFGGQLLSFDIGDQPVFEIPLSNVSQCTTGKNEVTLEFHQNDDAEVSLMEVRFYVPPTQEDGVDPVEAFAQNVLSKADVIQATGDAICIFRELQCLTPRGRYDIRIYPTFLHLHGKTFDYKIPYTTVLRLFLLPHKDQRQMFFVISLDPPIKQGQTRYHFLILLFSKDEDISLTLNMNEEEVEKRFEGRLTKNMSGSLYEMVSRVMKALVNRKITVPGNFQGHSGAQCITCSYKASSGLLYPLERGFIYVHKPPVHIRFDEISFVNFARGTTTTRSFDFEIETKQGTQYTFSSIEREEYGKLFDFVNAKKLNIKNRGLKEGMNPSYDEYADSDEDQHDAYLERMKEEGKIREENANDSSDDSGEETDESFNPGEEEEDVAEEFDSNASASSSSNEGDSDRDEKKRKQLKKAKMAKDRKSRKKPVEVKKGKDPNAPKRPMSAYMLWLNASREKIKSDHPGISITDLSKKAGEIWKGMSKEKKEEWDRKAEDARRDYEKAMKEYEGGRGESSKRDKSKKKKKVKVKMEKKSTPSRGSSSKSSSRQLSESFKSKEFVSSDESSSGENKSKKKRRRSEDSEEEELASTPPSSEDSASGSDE
Experimental: as §1, §2

DEFA3 = target: T4, DEFA3 (UniProt P59666 65-94, limits assumed)
T4 construct: also called NP_005208.1 (+1)
T4 sequence (P59666 65-94 limits assumed): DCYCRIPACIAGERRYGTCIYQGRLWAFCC
Experimental: as §1, §2

RPL37A = RPL37A (UniProt P61513 1-92)
Experimental: as §1, §2

RPL5 = RPL5 (UniProt P46777 2-297)
Experimental: as §1, §2

NCCRP1 = target: T5, NCCRP1 (UniProt Q6ZVX7 1-275)
T5 construct: also called NP_001001414.1
T5 sequence (looked up): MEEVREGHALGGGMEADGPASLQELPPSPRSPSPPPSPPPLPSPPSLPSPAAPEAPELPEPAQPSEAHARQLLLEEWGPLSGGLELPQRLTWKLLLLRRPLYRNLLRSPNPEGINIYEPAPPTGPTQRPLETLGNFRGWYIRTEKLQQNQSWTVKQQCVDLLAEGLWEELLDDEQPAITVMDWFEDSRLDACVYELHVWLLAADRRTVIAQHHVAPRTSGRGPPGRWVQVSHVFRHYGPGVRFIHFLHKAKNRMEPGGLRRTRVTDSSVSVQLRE
Experimental: as §1, §2

DDX20 = target: T6, DDX20 (UniProt Q9UHI6 1-824)
T6 construct: also called NP_009135.4
T6 sequence (looked up): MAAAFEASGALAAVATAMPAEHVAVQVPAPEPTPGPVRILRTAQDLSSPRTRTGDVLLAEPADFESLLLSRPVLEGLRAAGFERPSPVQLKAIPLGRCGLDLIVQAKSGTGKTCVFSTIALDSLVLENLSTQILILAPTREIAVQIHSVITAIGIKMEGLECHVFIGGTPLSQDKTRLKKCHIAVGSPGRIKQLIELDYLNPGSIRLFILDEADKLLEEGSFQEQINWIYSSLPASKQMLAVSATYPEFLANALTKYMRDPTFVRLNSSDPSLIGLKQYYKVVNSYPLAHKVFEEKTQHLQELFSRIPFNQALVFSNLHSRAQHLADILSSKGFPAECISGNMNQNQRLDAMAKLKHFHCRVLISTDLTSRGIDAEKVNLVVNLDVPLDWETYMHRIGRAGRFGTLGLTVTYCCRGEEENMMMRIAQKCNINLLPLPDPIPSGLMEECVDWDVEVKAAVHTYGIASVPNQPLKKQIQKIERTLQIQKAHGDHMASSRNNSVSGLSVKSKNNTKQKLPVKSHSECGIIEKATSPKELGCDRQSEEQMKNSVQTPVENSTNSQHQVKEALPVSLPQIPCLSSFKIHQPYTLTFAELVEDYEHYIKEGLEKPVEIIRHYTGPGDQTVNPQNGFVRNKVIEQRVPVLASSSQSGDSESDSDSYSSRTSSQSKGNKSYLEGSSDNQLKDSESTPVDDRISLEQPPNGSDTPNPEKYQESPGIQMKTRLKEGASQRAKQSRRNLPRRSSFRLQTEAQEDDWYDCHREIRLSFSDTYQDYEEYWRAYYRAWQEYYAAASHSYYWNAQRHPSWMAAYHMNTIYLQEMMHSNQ
Experimental: as §1, §2

T1 sequence (P04792 whole entry): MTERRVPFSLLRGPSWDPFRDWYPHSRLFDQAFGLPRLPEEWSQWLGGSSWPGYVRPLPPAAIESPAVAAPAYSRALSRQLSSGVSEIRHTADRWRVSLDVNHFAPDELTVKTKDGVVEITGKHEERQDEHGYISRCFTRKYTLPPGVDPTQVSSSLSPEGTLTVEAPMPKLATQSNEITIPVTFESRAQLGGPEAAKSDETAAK

co-IP mass spectrometry count (HSPB1): 3 | co-IP mass spectrometry count (RPS16): 9 | co-IP mass spectrometry count (RPS23): 9 | co-IP mass spectrometry count (RPS8): 6 | co-IP mass spectrometry count (TXN): 3 | co-IP mass spectrometry count (SSRP1): 0 | co-IP mass spectrometry count (DEFA3): 5 | co-IP mass spectrometry count (RPL37A): 6 | co-IP mass spectrometry count (RPL5): 0 | co-IP mass spectrometry count (NCCRP1): 4 | co-IP mass spectrometry count (DDX20): 0
B1: N-terminal FLAG tagged B3GNT2 (enzyme, human, UniProt Q9NY97 1-397, looked up)
chain: MSVGRRRIKLLGILMMANVFIYFIMEVSKSSSQEKNGKGEVIIPKEKFWKISTPPEAYWNREQEKLNRQYNPILSMLTNQTGEAGRLSNISHLNYCEPDLRVTSVVTGFNNLPDRFKDFLLYLRCRNYSLLIDQPDKCAKKPFLLLAIKSLTPHFARRQAIRESWGQESNAGNQTVVRVFLLGQTPPEDNHPDLSDMLKFESEKHQDILMWNYRDTFFNLSLKEVLFLRWVSTSCPDTEFVFKGDDDVFVNTHHILNYLNSLSKTKAKDLFIGDVIHNAGPHRDKKLKYYIPEVVYSGLYPPYAGGGGFLYSGHLALRLYHITDQVHLYPIDDVYTGMCLQKLGLVPEKHKGFRTFDIEEKNKNNICSYVDLMLVHSRKPQEMIDIWSQLQSAHLKC
notes: Bait of the co-IP; pulled down with mouse anti-FLAG from cell lysate; also called N-FLAG B3GNT2; N-term FLAG; not shown: FLAG tag at the N-terminus
